Measurements taken from the supplement of paper PMC9170038.

Tested on: MS2 coat protein
Test: apparent KD of MS2 coat protein; higher = weaker reporter binding
Conditions: Eterna round: R107
Method in brief: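 SNAP-549-labelled MS2 coat protein was titrated onto designed RNA switches that had been transcribed on-chip from Illumina sequencing clusters. Amounts doubled from 0.7 or 1.5 nM to 3 µM in 100 mM Tris-HCl pH 7.5, 80 mM KCl, 4 mM MgCl2, with constant ligand or without. Apparent KD is the median per design of normalised cluster binding-curve fits.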

[1] = input ligand: theophylline 20 uM
[2] = input ligand: theophylline 2 mM
[3] = input ligand: tryptophan 2.4 mM

Sequence	apparent KD of MS2 coat protein (input ligand: arginine 13.2 mM) [nM]	apparent KD of MS2 coat protein (input ligand: none) [nM]	apparent KD of MS2 coat protein [1] [nM]	apparent KD of MS2 coat protein [2] [nM]	apparent KD of MS2 coat protein [3] [nM]
GGGCGAGUGGAGCGGCGUGCUCCGCUCCGUCGAGGACCGGUACGGCCGCCACUCGACAUGAGGAUCACCCAUGUGCGAGCUCGCG [#1 Exclusion - Tryptophan A Attempt #13 (HarryS)]	7.39	17.6	27.1	58.6	180
GGGCGCGUGGACUGGCGUGCUCCGCUCCGUCGAGGACCGGUACGGCCGCCACUCGACAUGAGGAUCACCCAUGUGUGAGCUCGCG [#1 Exclusion - Tryptophan A Attempt #17 (HarryS)]	62.9	–	229	259	–
GGGUACAUCGCGGCCGCCACUUAUGUAAAUACAUGAGGAUCACCCAUGUCGAUGGAGACAUCGGAAAGGACCGGGUGAUGUACCG	130	–	271	262	–
GGGUACAUCGCGGCCGCCACUUGUGUAAAUACAUGAGGAUCACCCAUGUCGAUGGAGACAUCGGAGAGGACCGGGUGAUGUACCG	70.7	80	122	96.5	40.8
GGGUACAUCGCGGCCGCCACUUGUGUAAAUACAUGAGGAUCACCCAUGUCGAUGGAGACAUCGGGAAGGACCGGGUGAUGUACCG	218	342	802	1200	650
GGGUGGUAGGCGGCCGCCACUGAUUUUCAUUCCUAGAUGACAUGAGGAUCACCCAUGUUUAUGGGCAGGACCGGGCCUGCUGUGG [aaaV]	38.4	–	64.1	79.9	–
GGUAGACGGACGGCCGCCACUCACAUGAGGAUCACCCAUGUAUAGUUGGUAAUCUGGGUUCAGGAGAGGACCGGGUCCUUGUCAG [theeternabot_exclusion_MS2_Trp_B_43]	34.3	18.4	23.2	24.3	23.3
GGUAUAUAGGCGGCCGCCACUGAUUUUCAUAUAUAUAUAACAUGAGGAUCACCCAUGUAGAUAUACAGGACCGGGCCUAUAUAUU [aaaC]	16.1	–	17.7	16.4	–
GGUUACUCUACGGCCGCCACUGUAAAGUAAAGAUUACUGUACAUGACAUGAGGAUCACCCAUGUACAGGACCGGGUAGUGUAACC [Tryptophan B 15]	32.2	–	46.3	35.5	–
GGUUACUCUACGGCCGCCACUGUAAUGUAAAGAUACCUGUACAUGACAUGAGGAUCACCCAUGUACAGGACCGGGUAGUGUAACC [Tryptophan B 17]	144	–	312	343	–
GGUUAGGUUUUUGAUACCAGCUAUUGGUGUCAUCUGAGGAUCACCCAGGUCUUGUGUUUUAGCCCUUGGCAGCAAAAGUUUAGUC [SSTheo B #28]	72.6	88.4	118	94.1	108
GGUUGAUGACAUGAGGAUCACCCAUGUAGGCGAGGACCGGUACGGCCGCCACUCGACAUGAGGAUCACCCAUGUCGGCGUCCGUG	14.3	–	19.9	18	–
GGUUGGUGUAGAGAUAUAUUGAUUACUGAAGGAGCGGGACGAAACCCAGGUAGGUCGCAGAGAUCCACAUGAGGAUCACCCAUGU [!0.M]	31.6	46.1	46.6	61.4	33.4
GUACAUGAGGAUCACCCAUGUAUAGUUGAAGGAGCGACCAGAGGGUCAGGUAGGUCGCAGCACAUGGCGUAAACCCGUGUAUGCC [#1 Exclusion - Arginine A Attempt #23 (Inspired by Pi)]	20.4	21	27.9	24.9	21.2
GUAUACAUGAGGAUCACCCAUGUACCAGAAGGAGCGCUGGAAACAGCAGGUAGGUCGCUGGUAGGUCCUCUAUCUAGACGUUCUU [EAA NP+V+V2 #6]	40.5	193	167	157	110
GUAUAUUAUAGAAGGAGCGUCGAAAAUGGGUAAACAUGAGGAUCACCCAUGUAAAGGGAACGACAGGUAGGUCGCUAUAAUAUAC [AstromonsSSArgB#14]	154	218	233	311	220
GUCCGACAUGAGGAUCACCCAUGUACUGAAGGAGCGGACAAAUGUCCAGGUAGGUCGCAGCUAUAUGGUGUGGACCGAUCCGGAC [Ustius]	19	22	27.2	23.6	22.4
GUCGUGGUCGGAAGGAGCGACAUGAGGAUCACCCAUGUCUCCCGUUAUGGGAGUUCCUUAGGUCAGGUAGGUCGCCGACUGCGGC [#1 Exclusion - Arginine B Attempt #23 (Inspired by Omei)]	54.7	199	170	276	181

Sequence	apparent KD of MS2 coat protein (input ligand: arginine 13.2 mM) [nM]	apparent KD of MS2 coat protein (input ligand: none) [nM]	apparent KD of MS2 coat protein [1] [nM]	apparent KD of MS2 coat protein [2] [nM]	apparent KD of MS2 coat protein [3] [nM]
GUCUCAGACCGAGAUACCAGCUGGGUUUCCCACAUGAGGAUCACCCAUGUAUUCAGAUUAAGCCCUUGGCAGCUCAUCUAGGUCC [theeternabot_sameState_MS2_Theo_B_44]	21.8	–	20.6	–	16.6
GUCUUGGGAUCGGCCGCCACUACAUGAGGAUCACCCAUGUGGACAAAUAGGGUUGUUAAGCUCGGUAGGACCGGGAUUCGGACAU [Oncetexeza]	22.1	26	41.1	27.3	111
GUGUUUGUGUGAGAUACCAGUGAGGCCACAUGAGGAUCACCCAUGUCCCUCACUCCGGCCCACCCUUGGCAGCUCUUAUAGUAGU [Exclusion Theophylline B GF 23]	9.34	–	13.3	–	9.83
GUUAUAACAAAAGUUGUAACAGUGGGUGAACGAGGACCGGUACGGCCGCCACUCGGACAUGAGGAUCACCCAUGUCCAUGUGAAA [AstrosExyTryA#15]	14.1	–	18.2	21.6	–
GUUAUAGACGGAAGGAGCGCGGCCACAUGAGGAUCACCCAUGUAUUGUGUUGGUAAUAGGUCGCAGGUAGGUCGCCGAUUAAUGA [Same State - Arginine B / A]	35.9	55.1	61.7	47.5	34
GUUAUAUCAAAAGAUGUAACAGUGGGUGAACGAGGACCGGUACGGCCGCCACUCGGACAUGAGGAUCACCCAUGUCCAUGUGAAA [AstrosExyTryA#14]	15.8	–	17.5	18.7	–
UAAACUACACAUGAGGAUCACCCAUGUGGCCGAGGACCGGUACGGCCGCCACUCGUGUGUUAAUAAAAGAACUGCAAGGUUCUGU [Laorat]	68.7	–	419	552	–
UAAAUAUUACUGGGUAAGGUAUAAAUAGAUACCAGCCAGAUAACUGGCCCUUGGCAGCUAAACAUGAGGAUCACCCAUGUAUAAU [TheoAS 20 #OpenEnded #Ms2Late]	23.5	–	44	–	33.2
UAACAUGAGGAUCACCCAUGUUUGAAGGAACGAGGACCGGUACGGCCGCCACUCGACGAGUGGAUGAGAAGUGGGAUUGUGUGCU [Same State Trp A GF8]	14.4	13	17.5	17.3	15.2
UAAUCAGUGCCGGUUCUCGGAUCCUCAUGUCGAGGACCGGUACGGCCGCCACUCGGAACAUGAGGAUCACCCAUGUAAUAAUAAU [#10 Exclusion Tryptophan A]	40.7	–	101	162	–
UAAUGCAGGUCGGCCGCCACUACACACAUGAGGAUCACCCAUGUAGUUACUGGGUGAAGUGGCAGUAGGACCGGGACCUGCAUAA [Brourd01]	185	–	467	873	–
UACAUGAGGAUCACCCAUGUAUAACCGGUACGAGGACCGGUACGGCCGCCACUCGAAACAUGAGGAUCACCCAUGUGCUACUAUU [Same State Trypophan A GF 22]	25.3	–	36.4	35.1	–
UACAUGAGGAUCACCCAUGUAUACAUGGAUACCAGCGACAAUGGGCGCCCUUGGCAGCUAGUGGAUGGAGGGUGGCCACAGUACU [Exclusion Theophyline A GF5]	25.5	–	53.1	–	42.7
UACAUGAGGAUCACCCAUGUAUUGCCGGUACGAGGACCGGUACGGCCGCCACUCGGGACAUGAGGAUCACCCAUGUGCUGCUAUU [Same State Trypophan A GF 23]	28.7	44.4	49.8	42.4	45.8
UAUAUAUAGGCGGCCGCCACUGAUUUUCAUAUAUAUAUAACAUGAGGAUCACCCAUGUAGAUAUACAGGACCGGGCCUAUAUAUA [aaaA]	17	16.1	16.5	14.7	13.3
UAUCCACAUGAGGAUCACCCAUGUAGGGAAGGAGCGGUGAUUUCACCAGGUAGGUCGCCUUACUGAGGAGAACCGGUGGAAUCGU [Exclusion - Arginine A (Freestyle 30)]	45.5	25.9	40.6	75.9	19.8
UCAGUGCAAGGAAGGAGCGGGUACAUGAGGAUCACCCAUGUGCAAGUGGUGAGCGUUUGUGCCCAGGUAGGUCGCCUAGCCUGGU [XArg-B18]	507	125	172	179	159
UCAUGCAGGUCGGCCGCCACUACACACAUGAGGAUCACCCAUGUAGUUACUGGGUGAAGUGGCAGUAGGACCGGGACCUGCACAC [Brourdmod17]	155	504	632	849	1090
